Substitutions are numbered along the chain they refer to. A value given as a limit tells only on which side of the number the result lay.

The target of one data set is mCherry-FKBP-LAP1 (UniProt P62942 2-108). Briefly: cell-based or functional assay.
In the next data set the target is FKBP-LAP1 (UniProt P62942 1-108, limits assumed). Briefly: cell-based or functional assay.
Sequence of FKBP-LAP1 (P62942 other isoform, or with tags, fused parts or gaps limits assumed): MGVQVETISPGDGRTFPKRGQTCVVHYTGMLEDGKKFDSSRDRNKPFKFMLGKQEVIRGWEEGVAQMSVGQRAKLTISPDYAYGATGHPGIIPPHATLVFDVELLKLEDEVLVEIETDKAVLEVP

Sequence of FKBP-LAP1, P62942 (P62942 whole entry, looked up): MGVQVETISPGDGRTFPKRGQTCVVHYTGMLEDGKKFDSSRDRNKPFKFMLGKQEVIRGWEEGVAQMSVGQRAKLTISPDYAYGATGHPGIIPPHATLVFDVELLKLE
Sequence of mCherry-FKBP-LAP1 (P62942 other isoform, or with tags, fused parts or gaps): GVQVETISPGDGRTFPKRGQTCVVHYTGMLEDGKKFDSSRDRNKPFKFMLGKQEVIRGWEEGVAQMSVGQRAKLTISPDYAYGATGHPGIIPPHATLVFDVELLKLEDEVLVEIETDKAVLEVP

B1: FRB-LplAW37V (other)
chain: ILWHEMWHEGLEEASRLYFGERNVKGMFEVLEPLHAMMERGPQTLKETSFNQAYGRDLMEAQEWCRKYMKSGNVKDLTQAWDLYYHVFRRISKSTLRLLISDSYDPWFNLAVEECIFRQMPATQRVLFLVRNADTVVIGRAQNPWKECNTRRMEEDNVRLARRSSGGGAVFHDLGNTCFTFMAGKPEYDKTISTSIVLNALNALGVSAEASGRNDLVVKTVEGDRKVSGSAYRETKDRGFHHGTLLLNADLSRLANYLNPDKKKLAAKGITSVRSRVTNLTELLPGITHEQVCEAITEAFFAHYGERVEAEIISPNKTPDLPNFAETFARQSSWEWNFGQAPAFSHLLDERFTWGGVELHFDVEKGHITRAQVFTDSLNPAPLEALAGRLQGCLYRADMLQQECEALLVDFPEQEKELRELSAWMAGAVR
As for B1, in the data set with mCherry-FKBP-LAP1, the “minimum concentration of mCherry-FKBP-LAP1 required for a signal-to-background ratio >2:1” value came out at 6 µM.

B2: FRB-LplA (other)
chain: B1 chain with V130W
For the molecule B2, in the data set with FKBP-LAP1, the “+/- rapamycin signal-to-background ratio of lipoylation, anti-lipoic acid immunoblot, purified proteins at 10 µM each” value was > 12 ratio (:1); the “signal-to-background ratio of lipoylation in COS7 cells (+/- 100 nM rapamycin), cell lysis and immunoblot” value is 15 ratio (:1); the “signal-to-noise ratio of lipoylation in COS-7 cells with 3 minutes of lipoic acid treatment” value is 2.5 ratio (:1).

B3: LplAW37V (protein)
chain: STLRLLISDSYDPWFNLAVEECIFRQMPATQRVLFLVRNADTVVIGRAQNPWKECNTRRMEEDNVRLARRSSGGGAVFHDLGNTCFTFMAGKPEYDKTISTSIVLNALNALGVSAEASGRNDLVVKTVEGDRKVSGSAYRETKDRGFHHGTLLLNADLSRLANYLNPDKKKLAAKGITSVRSRVTNLTELLPGITHEQVCEAITEAFFAHYGERVEAEIISPNKTPDLPNFAETFARQSSWEWNFGQAPAFSHLLDERFTWGGVELHFDVEKGHITRAQVFTDSLNPAPLEALAGRLQGCLYRADMLQQECEALLVDFPEQEKELRELSAWMAGAVR
As for B3, the “Km of the enzyme for LAP1 (HPLC assay, ligation of coumarin probe to purified FKBP-LAP1)” value with FKBP-LAP1, P62942 is 681 ± 168 µM.

The values are drawn from patent US20120129159A1 (MIT, published 2012).
